Ends that are not written are not given here.
Columns and labels:
ApoC3 peptide … F61R = molecular target: T1, ApoC3 peptide … F61R (human, not fully specified (bridges); also: cyclic constrained); assay: peptide microarray
T1 peptide: DKRSEFWDLDPEV
How it was run: (§1)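 ApoC3 peptide microarrays incubated with antibody samples and then stained with goat anti-human IgG (Fc) DyLight680 plus anti-HA DyLight800 control antibody. Scanned at intensity 7/7 (red/green); a secondary-only prestain checked for background, and framing HA peptides served as quality control.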

ApoC3 peptide … D68Q = molecular target: T2, ApoC3 peptide … D68Q (human, cyclic constrained); assay: peptide microarray
T2 peptide: DKFSEFWDLQPEV
How it was run: as §1

ApoC3 peptide … D68H = molecular target: T3, ApoC3 peptide … D68H (human, cyclic constrained); assay: peptide microarray
T3 peptide: DKFSEFWDLHPEV
How it was run: as §1

ApoC3 peptide … F61V = molecular target: T4, ApoC3 peptide … F61V (human, not fully specified (bridges); also: cyclic constrained); assay: peptide microarray
T4 peptide: DKVSEFWDLDPEV
How it was run: as §1

ApoC3 peptide … W65C = ApoC3 peptide … W65C (human, cyclic constrained); assay: peptide microarray
How it was run: as §1

ApoC3 peptide … D59G = molecular target: T5, ApoC3 peptide … D59G (human, cyclic constrained); assay: peptide microarray
T5 peptide: GKFSEFWDLDPEV
How it was run: as §1

ApoC3 peptide … S62C = ApoC3 peptide … S62C (human, cyclic constrained); assay: peptide microarray
How it was run: as §1

ApoC3 peptide … E70D = ApoC3 peptide … E70D (human, cyclic constrained); assay: peptide microarray
How it was run: as §1

ApoC3 peptide … F64L = molecular target: T6, ApoC3 peptide … F64L (human, not fully specified (bridges); also: cyclic constrained); assay: peptide microarray
T6 peptide: DKFSELWDLDPEV
How it was run: as §1

ApoC3 peptide … L67V = molecular target: T7, ApoC3 peptide … L67V (human, not fully specified (bridges); also: cyclic constrained); assay: peptide microarray
T7 peptide: DKFSEFWDVDPEV
How it was run: as §1

ApoC3 peptide … P69K = molecular target: T8, ApoC3 peptide … P69K (human, not fully specified (bridges); also: cyclic constrained); assay: peptide microarray
T8 peptide: DKFSEFWDLDKEV
How it was run: as §1

ApoC3 peptide … P69F = molecular target: T9, ApoC3 peptide … P69F (human, not fully specified (bridges); also: cyclic constrained); assay: peptide microarray
T9 peptide: DKFSEFWDLDFEV
How it was run: as §1

ApoC3 peptide … V71W = ApoC3 peptide … V71W (human, cyclic constrained); assay: peptide microarray
How it was run: as §1

ApoC3 peptide … D66W = molecular target: T10, ApoC3 peptide … D66W (human, not fully specified (bridges); also: cyclic constrained); assay: peptide microarray
T10 peptide: DKFSEFWWLDPEV
How it was run: as §1

ApoC3 peptide … F64C = molecular target: T11, ApoC3 peptide … F64C (human, not fully specified (bridges); also: cyclic constrained); assay: peptide microarray
T11 peptide: DKFSECWDLDPEV
How it was run: as §1

ApoC3 peptide … W65K = molecular target: T12, ApoC3 peptide … W65K (human, not fully specified (bridges); also: cyclic constrained, ring type and places not given here); assay: peptide microarray
T12 peptide: DKFSEFKDLDPEV
How it was run: as §1

ApoC3 peptide … V71Q = ApoC3 peptide … V71Q (human, cyclic constrained); assay: peptide microarray
How it was run: as §1

ApoC3 peptide … F61P = molecular target: T13, ApoC3 peptide … F61P (human, not fully specified (bridges); also: cyclic constrained); assay: peptide microarray
T13 peptide: DKPSEFWDLDPEV
How it was run: as §1

ApoC3 peptide … E70Q = molecular target: T14, ApoC3 peptide … E70Q (human, not fully specified (bridges); also: cyclic constrained); assay: peptide microarray
T14 peptide: DKFSEFWDLDPQV
How it was run: as §1

ApoC3 peptide … K60D = molecular target: T15, ApoC3 peptide … K60D (human, not fully specified (bridges); also: cyclic constrained); assay: peptide microarray
T15 peptide: DDFSEFWDLDPEV
How it was run: as §1

ApoC3 peptide … L67M = molecular target: T16, ApoC3 peptide … L67M (human, not fully specified (bridges); also: cyclic constrained); assay: peptide microarray
T16 peptide: DKFSEFWDMDPEV
How it was run: as §1

ApoC3 peptide … E63T = ApoC3 peptide … E63T (human, cyclic constrained); assay: peptide microarray
How it was run: as §1

ApoC3 peptide F64Q = molecular target: T17, ApoC3 peptide F64Q (human, thioether (positions not given here); not fully specified (bridges); also: cyclic (thioether), positions not given here); assay: cyclic peptide substitution array
T17 peptide: DKFSEQWDLDPEV
Excerpt: (§2) S62 and D68 of mature huApoC3 were also highly conserved; substitution of S62 by A or V, and substitution of D68 by E or P, caused decrease of spot intensities by ˜60% or higher. […] Amino acid F64 was completely variable.
(§3) Pre: staining of one of the ApoC3 peptide microarrays was done with the secondary antibody goat anti-human IgG (Fe) DyLight680 (1:5000) and control antibody mouse monoclonal anti-HA (12CA5) DyLight800 (1:2000) to investigate background interactions of the secondary antibody with the antigen-derived peptides that could interfere with the main assays. Subsequent incubation of other ApoC3 peptide microarrays with antibody samples was followed by staining with secondary and control antibodies as well as read-out at scanning intensities of 7/7 (red/green). The additional HA peptides framing the peptide arrays were stained as internal quality control to confirm the assay quality and the peptide microarray integrity.

ApoC3 peptide K60P = molecular target: T18, ApoC3 peptide K60P (human, cyclic (thioether)); assay: cyclic peptide substitution array
T18 peptide: DPFSEFWDLDPEV
Excerpt: as §2, §3

ApoC3 peptide E70V = molecular target: T19, ApoC3 peptide E70V (human, cyclic (thioether)); assay: cyclic peptide substitution array
T19 peptide: DKFSEFWDLDPVV
Excerpt: as §2, §3

ApoC3 peptide L67T = molecular target: T20, ApoC3 peptide L67T (human, thioether (positions not given here); not fully specified (bridges); also: thioether between a C-terminal Cys side chain and a modified N-terminus, the Cys is not in the chain); assay: cyclic peptide substitution array
T20 peptide: DKFSEFWDTDPEV
Excerpt: as §2, §3

ApoC3 peptide P69H = molecular target: T21, ApoC3 peptide P69H (human, not fully specified; cyclic (thioether)); assay: cyclic peptide substitution array
T21 peptide: DKFSEFWDLDHEV
Excerpt: as §2, §3

ApoC3 peptide P69W = molecular target: T22, ApoC3 peptide P69W (human, not fully specified; cyclic (thioether)); assay: cyclic peptide substitution array
T22 peptide: DKFSEFWDLDWEV
Excerpt: as §2, §3

ApoC3 peptide D68P = molecular target: T23, ApoC3 peptide D68P (human, cyclic (thioether)); assay: cyclic peptide substitution array
T23 peptide: DKFSEFWDLPPEV
Excerpt: as §2, §3

ApoC3 peptide D68C = molecular target: T24, ApoC3 peptide D68C (human, cyclic (thioether)); assay: cyclic peptide substitution array
T24 peptide: DKFSEFWDLCPEV
Excerpt: as §2, §3

ApoC3 peptide K60F = molecular target: T25, ApoC3 peptide K60F (human, cyclic (thioether)); assay: cyclic peptide substitution array
T25 peptide: DFFSEFWDLDPEV
Excerpt: as §2, §3

ApoC3 peptide K60C = molecular target: T26, ApoC3 peptide K60C (human, thioether (positions not given here); not fully specified (bridges); also: cyclic (thioether), positions not given here); assay: cyclic peptide substitution array
T26 peptide: DCFSEFWDLDPEV
Excerpt: as §2, §3

ApoC3 peptide L67F = molecular target: T27, ApoC3 peptide L67F (human, thioether (positions not given here); not fully specified (bridges); also: thioether between a C-terminal Cys side chain and a modified N-terminus, the Cys is not in the chain); assay: cyclic peptide substitution array
T27 peptide: DKFSEFWDFDPEV
Excerpt: as §2, §3

B1: anti-ApoC3 antibody 6A6 (antibody, V domains shown)
VH: EVQLVESGGGLVQPGGSLRLSCAASGFTFSSYAGRWVRQVPGKGLEWVSSINAGGGSTSYADSVKGRFTISRDNAKNTLYLQMNSLKPEDTAKYYCTQNSYRYWGQGTRVAVSS
VL: DVVLTQTPGSLSVVPGESASISCKASQSLIHTDGKTYLYWLLQKPGQRPQLLIYQVSSHESGVPDRFTGSGSGTDFTLKISGVKAEDAGVYYCAQATYNPRTFGQGTKLEIK
notes: it was detected with goat anti-human IgG (Fc); also called mAb 6A6; llama antibody 6A6
ApoC3 peptide … F61R
  % of binding to wild-type peptide: 35.6%
ApoC3 peptide … D68Q
  % of binding to wild-type peptide: 0%
ApoC3 peptide … D68H
  % of binding to wild-type peptide: 0%
ApoC3 peptide … F61V
  % of binding to wild-type peptide: 47%
ApoC3 peptide … W65C
  % of binding to wild-type peptide: 16%
ApoC3 peptide … D59G
  % of binding to wild-type peptide: 87.5%
ApoC3 peptide … S62C
  % of binding to wild-type peptide: 10.4%
ApoC3 peptide … E70D
  % of binding to wild-type peptide: 13.8%
ApoC3 peptide … F64L
  % of binding to wild-type peptide: 89.7%
ApoC3 peptide … L67V
  % of binding to wild-type peptide: 56.5%
ApoC3 peptide … P69K
  % of binding to wild-type peptide: 26.3%
ApoC3 peptide … P69F
  % of binding to wild-type peptide: 97.7%
ApoC3 peptide … V71W
  % of binding to wild-type peptide: 59.2%
ApoC3 peptide … D66W
  % of binding to wild-type peptide: 0%
ApoC3 peptide … F64C
  % of binding to wild-type peptide: 76.4%
ApoC3 peptide … W65K
  % of binding to wild-type peptide: 0%
ApoC3 peptide … V71Q
  % of binding to wild-type peptide: 81.4%
ApoC3 peptide … F61P
  % of binding to wild-type peptide: 79%
ApoC3 peptide … E70Q
  % of binding to wild-type peptide: 2.1%
ApoC3 peptide … K60D
  % of binding to wild-type peptide: 151%
ApoC3 peptide … L67M
  % of binding to wild-type peptide: 43.4%
ApoC3 peptide … E63T
  % of binding to wild-type peptide: 35.9%

B2: Llama antibody 5E5 (antibody, V domains shown)
VH: QLQLVESGGGLVQPGGSLRLSCAASGFTFGTYSMRWVRQVPRKALEWVSSISTDGGGTAYRDSVKGRFTISRDNAKNTLYLQMNNLKPEDTAIYYCVIAGYSDWGQGTQVTVSS
VL: ATMLTQSPGSLSVVPGESASISCKTSQGLVHSDGKTYFYWFLQKPGQSPQQLIYQVSNRASGVPDRFTGSGSGTDFTLKISGVKAEDAGVYYCAQGTYYPHTFGSGTRLEIK
notes: detected with goat anti-human IgG (Fc); also called mAb 5E5
ApoC3 peptide F64Q
  % of binding to wild-type peptide: 130%
ApoC3 peptide K60P
  % of binding to wild-type peptide: 205%
ApoC3 peptide E70V
  % of binding to wild-type peptide: 57%
ApoC3 peptide L67T
  % of binding to wild-type peptide: 168%
ApoC3 peptide P69H
  % of binding to wild-type peptide: 10.7%
ApoC3 peptide P69W
  % of binding to wild-type peptide: 5.36%
ApoC3 peptide D68P
  % of binding to wild-type peptide: 28.6%
ApoC3 peptide D68C
  % of binding to wild-type peptide: 5.46%
ApoC3 peptide K60F
  % of binding to wild-type peptide: 53.2%
ApoC3 peptide K60C
  % of binding to wild-type peptide: 67.2%
ApoC3 peptide L67F
  % of binding to wild-type peptide: 0.37%
